Source: article PMC5308906 (2016)
No end group written: not given here.

Molecular target: T1, ψIRS1-Cargo V5 (Homo sapiens, UniProt Q05655, not fully specified)
T1 chain: EKARLSYS
Test: AGILE Dev Kit binding assay

Kd: 200 nM
B1: θPKC (protein)
chain: MSPFLRIGLSNFDCGSCQSCQGEAVNPYCAVLVKEYVESENGQMYIQKKPTMYPPWDSTFDAHINKGRVMQIIVKGKNVDLISETTVELYSLAERCRKNNGKTEIWLELKPQGRMLMNARYFLEMSDTKDMNEFETEGFFALHQRRGAIKQAKVHHVKCHEFTATFFPQPTFCSVCHEFVWGLNKQGYQCRQCNAAIHKKCIDKVIAKCTGSAINSRETMFHKERFKIDMPHRFKVYNYKSPTFCEHCGTLLWGLARQGLKCDACGMNVHHRCQTKVANLCGINQKLMAEALAMIESTQQARCLRDTEQIFREGPVEIGLPCSIKNEARPPCLPTPGKREPQGISWESPLDEVDKMCHLPEPELNKERPSLQIKLKIEDFILHKMLGKGSFGKVFLAEFKKTNQFFAIKALKKDVVLMDDDVECTMVEKRVLSLAWEHPFLTHMFCTFQTKENLFFVMEYLNGGDLMYHIQSCHKFDLSRATFYAAEIILGLQFLHSKGIVYRDLKLDNILLDKDGHIKIADFGMCKENMLGDAKTNTFCGTPDYIAPEILLGQKYNHSVDWWSFGVLLYEMLIGQSPFHGQDEEELFHSIRMDNPFYPRWLEKEAKDLLVKLFVREPEKRLGVRGDIRQHPLFREINWEELERKEIDPPFRPKVKSPFDCSNFDKEFLNEKPRLSFADRALINSMDQNMFRNFSFMNPGMERLIS
